Results taken from patent US20250376539A1 (KIRA PHARMACEUTICALS SUZHOU, published 2025).
Residue numbers refer to the chain shown, from its start.

T1: recombinant human complement C2 (NP_000054.2), C-terminal 6His-tag, made in house (CHO cell expression) (human, UniProt P06681 21-752)
T1 construct: a linker before the tag is not described; also called human C2; Human C2
T1 sequence: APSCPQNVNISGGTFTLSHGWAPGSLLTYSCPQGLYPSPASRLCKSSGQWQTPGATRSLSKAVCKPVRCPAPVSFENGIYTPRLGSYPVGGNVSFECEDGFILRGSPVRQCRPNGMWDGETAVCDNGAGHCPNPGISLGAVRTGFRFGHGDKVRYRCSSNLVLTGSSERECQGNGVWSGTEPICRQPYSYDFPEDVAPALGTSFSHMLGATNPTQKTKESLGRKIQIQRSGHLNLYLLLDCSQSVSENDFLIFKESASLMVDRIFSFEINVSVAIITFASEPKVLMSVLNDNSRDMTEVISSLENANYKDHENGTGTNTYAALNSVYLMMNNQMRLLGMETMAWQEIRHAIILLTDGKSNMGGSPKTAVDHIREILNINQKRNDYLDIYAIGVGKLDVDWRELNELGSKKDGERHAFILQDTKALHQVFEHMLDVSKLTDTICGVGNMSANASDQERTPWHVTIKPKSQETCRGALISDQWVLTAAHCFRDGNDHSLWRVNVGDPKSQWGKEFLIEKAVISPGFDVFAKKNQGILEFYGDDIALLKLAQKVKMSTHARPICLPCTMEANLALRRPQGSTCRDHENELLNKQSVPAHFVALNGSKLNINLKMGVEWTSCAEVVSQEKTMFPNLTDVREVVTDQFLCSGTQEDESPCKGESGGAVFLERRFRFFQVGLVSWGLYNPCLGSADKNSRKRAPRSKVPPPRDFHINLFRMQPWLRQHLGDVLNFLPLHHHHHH

T2: recombinant cynomolgus (cyno) complement C2 (XP_005553508.1), C-terminal 6His-tag, made in house (CHO cell … (cynomolgus monkey (Macaca fascicularis), UniProt P06681 21-752 (human entry)))
T2 construct: also called cyno C2; Cyno C2
T2 chain: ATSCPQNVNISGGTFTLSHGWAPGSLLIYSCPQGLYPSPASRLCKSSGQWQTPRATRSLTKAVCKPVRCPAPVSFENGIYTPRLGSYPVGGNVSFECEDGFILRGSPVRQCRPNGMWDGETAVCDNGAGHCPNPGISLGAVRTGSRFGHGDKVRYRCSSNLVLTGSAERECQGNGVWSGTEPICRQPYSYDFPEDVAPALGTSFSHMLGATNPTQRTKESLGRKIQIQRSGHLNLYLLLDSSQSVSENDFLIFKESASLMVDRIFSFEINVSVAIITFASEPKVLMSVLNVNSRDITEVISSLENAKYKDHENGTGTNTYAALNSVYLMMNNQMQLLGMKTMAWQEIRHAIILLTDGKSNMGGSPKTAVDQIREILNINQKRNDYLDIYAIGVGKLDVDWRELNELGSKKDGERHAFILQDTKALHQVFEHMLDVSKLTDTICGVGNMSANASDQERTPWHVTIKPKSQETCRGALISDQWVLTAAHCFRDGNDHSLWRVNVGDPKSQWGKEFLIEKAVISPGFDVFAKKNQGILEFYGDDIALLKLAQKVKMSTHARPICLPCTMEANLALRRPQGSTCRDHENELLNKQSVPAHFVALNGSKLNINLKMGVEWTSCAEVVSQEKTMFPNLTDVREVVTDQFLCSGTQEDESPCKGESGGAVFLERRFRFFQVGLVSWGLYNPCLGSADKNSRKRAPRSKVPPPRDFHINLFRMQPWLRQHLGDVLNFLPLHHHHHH

T3: recombinant cyno C2a, C-terminal 6His-tag, made in house (CHO cell expression) (cynomolgus monkey, UniProt P06681 244-752 (human entry))
T3 chain: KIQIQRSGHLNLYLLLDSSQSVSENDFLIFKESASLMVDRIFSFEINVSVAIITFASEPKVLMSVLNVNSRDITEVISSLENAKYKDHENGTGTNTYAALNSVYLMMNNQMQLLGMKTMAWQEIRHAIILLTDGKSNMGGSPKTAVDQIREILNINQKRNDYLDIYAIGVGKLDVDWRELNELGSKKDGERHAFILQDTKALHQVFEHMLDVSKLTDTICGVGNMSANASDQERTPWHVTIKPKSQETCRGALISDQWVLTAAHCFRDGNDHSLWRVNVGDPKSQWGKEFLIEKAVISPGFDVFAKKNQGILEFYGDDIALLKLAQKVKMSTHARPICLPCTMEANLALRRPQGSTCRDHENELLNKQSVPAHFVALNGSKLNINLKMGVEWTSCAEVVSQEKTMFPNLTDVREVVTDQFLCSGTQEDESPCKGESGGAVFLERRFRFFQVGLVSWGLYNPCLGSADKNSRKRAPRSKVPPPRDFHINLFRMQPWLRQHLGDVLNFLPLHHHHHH

T4: recombinant human C2a, C-terminal 6His-tag, made in house (CHO cell expression) (human, UniProt P06681 244-752)
T4 sequence: T3 chain with S18C, V68D, I73M, K84N, Q112R, K117E, Q148H

B1: 3.2 H2-10 × L1-5 (antibody, V domains shown)
VH: EVQLLESGGGLVQPGGSLRLSCAASGFTFRHYAMSWVRQAPGKGLEWVSLISGSGASTHYADSVKGRFTISRDNSENMLYLQMNSLRAEDTAVYYCAKDSLAVAGSEYFQHWGQGTLVTVSS
VL: SYVLTQAPSVSVAPGQTARITCGGNYHGGKSVHWYQQRPGQAPVLVVYDDSDRPSGIPERFSGSKSGNTATLAISRVEAGDEAAYYCQVYDTSSDHWVFGGGTKLTVL
notes: Histidine mutant of 3.2
B2: 3.2 H2-10 × L1-10 (antibody, V domains shown)
VH: B1 VH
VL: B1 VL with H27F, V32H
notes: Histidine mutant of 3.2
B3: 3.2 H2-10 × L3-6 (antibody, V domains shown)
VH: B1 VH
VL: B1 VL with H27F, S93H
notes: Histidine mutant of 3.2
B4: anti-C2 antibody 34.5 (antibody, IgG4, V domains shown)
VH: QVQLQESGPGLVKPSQTLSLTCTVSGGSISRGGHQWTWIRQHPGKGLEWIGYIHHSGSTYYNPSLNDRLTILVDTPKNQFSLKLSSVTAADTAVYYCARWNLGSYGDYWGQGTLVTVSS
VL: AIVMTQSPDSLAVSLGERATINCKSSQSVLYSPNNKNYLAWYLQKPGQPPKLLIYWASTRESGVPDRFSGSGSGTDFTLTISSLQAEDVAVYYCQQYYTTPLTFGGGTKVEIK
notes: Recombinant
B5: anti-C2 antibody 199.1 (antibody, IgG4, V domains shown)
VH: B4 VH with T37S, H42N, G44E, D67N
VL: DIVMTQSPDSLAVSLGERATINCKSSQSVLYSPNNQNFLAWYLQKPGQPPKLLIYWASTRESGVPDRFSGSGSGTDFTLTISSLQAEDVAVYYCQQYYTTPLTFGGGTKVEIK
notes: Recombinant
B6: anti-C2 antibody 48.14 (antibody, IgG4, V domains shown)
VH: B1 VH with T28K, R30S, H31Y, A56Y, H59Y, Y60F, E76K, M78T, L101I
VL: SYVLTQPPSVSVAPGQTARITCGGDNIGGKSVHWYQQKPGQAPVLVVYDDSDRPSGIPERFSGSDSGNTATLTISWVEAGDEADYYCQVWDDSSDHWVFGGGTKLTVL
notes: Recombinant
B7: anti-C2 antibody 83.16 (antibody, IgG4, V domains shown)
VH: QLQLQESGPGLVKSSETLSLTCTVSGGPISSSSYYWGWIRQPPGKGLEWIGTIYYSGRTYYNPSLKSRGTISVGTSKNQFSLKLSSVTAADTAVFYCAGGVGVTWDYWGQGTLVTVSS
VL: SYDLSQPLSVSVALGQTARITCGGNDIESKNVHWYQQRPGQAPVLVIYRNSNRPSGIPERFSGSNSGNTATLTISRGQGGDEADYYCQVWDSSTVIFGGGTKLTVL
notes: Recombinant
B8: anti-C2 antibody 39.4 (antibody, IgG4, V domains shown)
VH: B1 VH with R19S, A23T, R30S, L50V, H59F, M78T, L101I
VL: SYVLTQAPSVSVAPGQTARITCGGNNIGGKTVHWYQQKPGQAPMLVVYDDSDRPSGIPERFSGSKSGNMAILTISRVEAGDEADYYCQLYDIYSDHWVFGGGTKLTVL
notes: Recombinant
B9: anti-C2 antibody 139.14 (antibody, IgG4, V domains shown)
VH: QVQLRESGPGLMKPSETLSLTCTVSGGSVSSGVYYWTWIRQPPGKGLEWIGSMFYSGNADYNPSLKSRVTISVDTSKNQFSLRLNSVSAADMAVYYCARGYASGWSYYFDYWGQATLVTVSS
VL: SSELTQDPTVSVALGQTVRITCQGDSLRTYYASWYQQKPGQAPVLVLYGKNNRPSGIPDRFSGSSSGNTASLTITGAQAEDEADYYCNSRYSSGTHVVFGGGTKLTVL
notes: Recombinant

The binders below were run against T1, recombinant human complement C2 … (assay: BLI (Gator), antibody on probe; 600 s association at pH 7.4, 600 s dissociation at pH 7.4).
Method: (§1) The histidine mutant constructs in Table 4 were tested for their pH-dependent dissociation from human C2. Probe-immobilized anti-C2 antibodies were incubated with C2 at pH 7.4 for 600s, followed by a 600s dissociation period in K Buffer at pH 7.4 or pH 5.8. The data were processed and analyzed by the Gator evaluation software.

In order of rising “Dissociation (%) pH 7.4” value:
1. B2  5.45%
2. B1  6.42%
3. B3  7.61%

These binders were tested against T1, recombinant human complement C2 … (assay: BLI (Gator); ratio of dissociation at pH 5.8 to pH 7.4).
Method: as §1

In order of rising “Fold dissociation pH 5.8/pH 7.4” value:
1. B3  9 fold
2. B1  10.4 fold
3. B2  10.4 fold

Target: T2, recombinant cynomolgus (cyno) …
Experiment: ELISA

In order of rising EC50:
1. B7  0.0397 nM
2. B5  0.05 nM
3. B4  0.0521 nM
4. B6  0.0682 nM
5. B8  0.0869 nM
6. B9  0.115 nM

The binders below were run against T1, recombinant human complement C2 … (assay: ELISA).

In order of rising EC50:
1. B7  0.0408 nM
2. B5  0.0479 nM
3. B4  0.0512 nM
4. B6  0.0514 nM
5. B8  0.0576 nM
6. B9  0.0599 nM

Target: T3, recombinant cyno C2a, C-terminal …
Experiment: ELISA

Binder B9 has an EC50 of 0.208 nM.

What follows are binders tested against T4, recombinant human C2a, C-terminal … (assay: ELISA).

With B9 the EC50 was 0.131 nM.

These binders were tested against T1, recombinant human complement C2 … (assay: binding kinetics, neutral pH (BLI presumed)).

In order of rising Kd:
1. B2  0.329 nM
2. B1  0.41 nM
3. B3  0.42 nM

In order of falling koff:
1. B3  0.000119 s⁻¹
2. B1  0.000112 s⁻¹
3. B2  8.72e-05 s⁻¹

In order of falling kon:
1. B3  283000 M⁻¹ s⁻¹
2. B1  272000 M⁻¹ s⁻¹
3. B2  265000 M⁻¹ s⁻¹

Each binder was assayed against T4, recombinant human C2a, C-terminal … (assay: ELISA on human C2a, OD450nm against log Ab conc. (nmol/L)).

B4: no binding (tested: 100 nmol/L).
B5: no binding (tested: 100 nmol/L).
B6: no binding (tested: 100 nmol/L).
B7: no binding (tested: 100 nmol/L).
B8: no binding (tested: 100 nmol/L).

Target: T3, recombinant cyno C2a, C-terminal …
Experiment: ELISA on cyno C2a, OD450nm against log Ab conc. (nmol/L)

B4: no binding (tested: 100 nmol/L).
B5: no binding (tested: 100 nmol/L).
B6: no binding (tested: 100 nmol/L).
B7: no binding (tested: 100 nmol/L).
B8: no binding (tested: 100 nmol/L).

Each binder was assayed against T1, recombinant human complement C2 … (assay: BLI (Gator), antibody on probe; 600 s association at pH 7.4, 600 s dissociation at pH 5.8).
Method: as §1

In order of falling “Dissociation (%) pH 5.8” value:
1. B3  68.7%
2. B1  66.7%
3. B2  56.6%
